Measured values: patent US11752210B2, “Sensitizing composition using electromagnetic waves for thermal therapy of cancers, and cancer therapy using same” (JINIS CO., LTD., priority 2013, dated 2023)

Experiments:
[1] = system: NCI-H460-luc2 tumor xenograft; experiment: Thermal cancer therapy with repeated sensitizer dosing, weekly bioluminescence imaging of tumor size over four weeks (Example 1, FIG. 13); format: in vivo, BALB/c athymic nude mice; conditions: i.v. three times per week, 100 W 30 min or more
Procedure: After 4 hr, thermal treatment for 30 min or more using a radio-frequency hyperthermia system (EHY-2000, Oncothermia) with an energy dose of 100 W was performed for a total of four weeks, and the size of tumorous tissue was monitored every week. […] In the group to which transferrin was administered, 0.1 ml of the transferrin aqueous solution having a concentration of 5 mg/ml was intravenously injected. As such, the non-treated group and the saline-treated group were used as controls.
In order to analyze the size of tumorous tissue, bioluminescence imaging was regularly performed at an interval of one week, and analysis was performed using Igor Pro imaging analysis software.

[2] = system: cancer cell line NCI-H460; experiment: In vitro temperature elevation in cancer cells cultured with transferrin, after electromagnetic waves (Test Example 4); format: cell-based; conditions: for increase in temperature before and after electromagnetic waves: cancer cell line, cultured 4 hr, washed, 100 W for 3 min
Procedure: (§1) The temperature elevation by the metal ion-noncovalently bound apotransferrin was evaluated through in vitro cell testing. A cancer cell line […] Sciences) in which the transferrin receptor was over-expressed was cultured, and 0.1 ml of a cell suspension at a concentration of 1×10^3 cells/ml was aliquoted into a 96-well plate and cultured in a CO2 incubator at 37° C. for 12 hr. As a control, normal human cells, i.e. stromal cells, were cultured, and 0.1 ml thereof was aliquoted at a concentration of 3×10^3 cells/ml into a 96-well plate and cultured in a CO2 incubator at 37° C. for 12 hr. […] After completion of the culturing of transferrin and cells, each plate was washed with a DMEM medium, thus removing transferrin that was not introduced into the cells. Next, each plate was exposed to an energy dose of 100 W for 3 min using a radio-frequency hyperthermia system (EHY-2000, Oncothermia), and changes in the temperature were measured using a thermal imaging camera ([…], Korea Rental, Korea).

[3] = system: normal human cells, i.e. stromal cells; experiment: In vitro temperature elevation in normal cells cultured with transferrin, after electromagnetic waves (Test Example 4); format: cell-based; conditions: normal cell line; all concentrations (0 to 5 mg/ml); cultured 4 hr, washed; 100 W for 3 min
Procedure: as §1

[4] = system: NCI-H460-luc2 tumor xenograft; experiment: Temperature of normal and tumorous tissue of tumor xenograft mice on application of electromagnetic waves after sensitizer (Example 1, FIGS. 9 to 11); format: in vivo, BALB/c athymic nude mice; conditions: i.v. iron sucrose 1 mg/kg or transferrin 20 mg/kg, 4 hr after administration, 100 W for 3 min
Procedure: To this end, a lung cancer cell line NCI-H460-luc2 (Califer Life Sciences) was cultured, and 5×10^6 cells were subcutaneously injected into 6 to 8-week-old female BALB/c athymic nude mice (Damul Science), and the mice were bred for about 10 days so as to grow tumorous tissue to a size of 100 mm^3 or more, yielding the tumor xenograft animal models for the evaluation of cancer treatment effects.
As the sensitizing composition for thermal therapy, iron sucrose was prepared in the same manner as in Test Example 1, and 0.1 ml of the iron sucrose aqueous solution having a concentration of 0.2 mg/ml was intravenously injected into the established tumor xenograft mice so as to reach a dose of 1 mg/kg.
As the sensitizing composition for thermal therapy, “iron ion-bound apotransferrin” (transferrin) was prepared in the same manner as in Test Example 3, and 0.1 ml of the transferrin aqueous solution having a concentration of 5 mg/ml was intravenously injected into the established tumor xenograft mice so as to reach a dose of 20 mg/kg.
As the control, saline was administered. 4 hr after administration, electromagnetic waves were applied in an energy dose of 100 W for 3 min using a radio-frequency hyperthermia system (EHY-2000, Oncothermia), and the temperatures of normal tissue and tumorous tissue were measured using a thermal imaging device (E60, Korea Rental, Korea).

[5] = system: NCI-H460-luc2 tumor xenograft; experiment: Thermal cancer therapy with sensitizer, bioluminescence imaging of tumor size in the last week (Example 1, FIG. 12); format: in vivo, BALB/c athymic nude mice; conditions: i.v. 1 mg/kg metal ion-bound material or 20 mg/kg transferrin, 100 W 10 min, three times per week, four weeks
Procedure: Next, the potential to treat cancer was evaluated using the metal ion-bound material as the sensitizer upon thermal therapy. A lung cancer cell line NCI-H460-luc2 ([…] Sciences) was cultured, and 5×10^6 cells were subcutaneously injected into 6 to 8-week-old female BALB/c athymic nude mice (Damul Science), and the mice were bred for about 10 days so as to grow tumorous tissue to a size of 100 mm^3 or more, yielding the tumor xenograft animal models for the evaluation of cancer treatment effects. […] After 4 hr, thermal treatment was performed three times per week for a total of four weeks using a radio-frequency hyperthermia system (EHY-2000, Oncothermia) with an energy dose of 100 W for 10 min. As such, a non-treated group and a saline-treated group were set as controls. In order to analyze the size of tumorous tissue in the last week, bioluminescence imaging was performed. For bioluminescence of a luciferase-expressing cancer cell line NCI-H460-luc2, D-luciferin (Xenogen, USA) was intraperitoneally injected at a concentration of 150 mg luciferin/kg/d into the mice, the mice were anesthetized through inhalation using a mixture of isoflurane gas and oxygen, and luminous cancer cells were subjected to overlap photographing using a Xenogen imager (IVIS 200), and analyzed using Igor Pro imaging analysis software.

[6] = In vivo accumulation of iron ion in normal and tumorous tissue after transferrin, ICP-MS (Test Example 6); parameters: species or system BALB/c athymic nude mice; concentration of iron ion (ICP-MS): unit not given here; conditions: 16 mg/kg i.v., after 24 hr
Procedure: In order to evaluate the accumulation capacity of “metal ion-noncovalently bound apotransferrin” (transferrin) in tumorous tissue, the iron-bound transferrin aqueous solution was administered to the mice, after which the concentrations of the metal ions were measured in normal tissue and tumorous tissue. The iron ion-bound apotransferrin (transferrin) aqueous solution was prepared at 4 mg/ml, and 0.1 ml thereof was intravenously injected in a dose of 16 mg/kg. After 24 hr, each tissue was sampled in the same manner as in Test Example 5 and the concentration of the metal ion was measured through ICP-MS (Varian 800-MS, Palo Alto, US).

transferrin: iron ion-bound apotransferrin prepared by reacting ferric hydroxide solution with apotransferrin at 37° C. for 30 min
growth of cancer upon thermal treatment using electromagnetic waves (bioluminescence imaging) ([1]; 0.1 ml of 0.2 mg/ml (iron dextran, iron sucrose) or 5 mg/ml (transferrin), four weeks): remarkably inhibited | size of cancer after four weeks (bioluminescence imaging) ([1]; 0.1 ml of 5 mg/ml, after four weeks): disappeared completely | selectivity of temperature elevation depending on concentration, cancer vs normal cell line ([2]; FIGS. 5 to 8): more selective in the cancer cell line than in the normal cell line | increase in temperature before and after electromagnetic waves ([2]; 1 mg/ml): 11.9 °C | increase in temperature before and after electromagnetic waves ([2]; 5 mg/ml): 12.6 °C | change in temperature before and after electromagnetic waves [3]: about 7 °C | changes in the temperature before and after the application of electromagnetic waves ([4]; normal tissue): 1 °C | changes in the temperature before and after the application of electromagnetic waves ([4]; tumorous tissue): 2 °C | cancer treatment effects through thermal therapy (size of tumorous tissue, bioluminescence imaging) [5]: excellent | Fold increase of iron ion vs saline ([6]; Brain): 1.26 | concentration of iron ion (ICP-MS) ([6]; Brain): 28.4 ± 3.5 | Fold increase of iron ion vs saline ([6]; Heart): 2.18 | concentration of iron ion (ICP-MS) ([6]; Heart): 70.1 ± 12.3 | Fold increase of iron ion vs saline ([6]; Kidney): 0.72 | concentration of iron ion (ICP-MS) ([6]; Kidney): 41.2 ± 1.7 | Fold increase of iron ion vs saline ([6]; Liver): 1.27 | concentration of iron ion (ICP-MS) ([6]; Liver): 94.7 ± 8.1 | Fold increase of iron ion vs saline ([6]; Lung): 1.55 | concentration of iron ion (ICP-MS) ([6]; Lung): 43.9 ± 17.9 | Fold increase of iron ion vs saline ([6]; Muscle): 0.87 | concentration of iron ion (ICP-MS) ([6]; Muscle): 25.7 ± 5.2 | Fold increase of iron ion vs saline ([6]; Stomach): 1.67 | concentration of iron ion (ICP-MS) ([6]; Stomach): 46.4 ± 14.9 | concentration of iron ion (ICP-MS) ([6]; Tumor): 43.9 ± 9.7 | Fold increase of iron ion vs saline ([6]; Tumor, 16 mg/kg): ≥ 3.2 | Fold increase of iron ion vs saline ([6]; Tumor, listed as Transferrin, 16 mg/kg): 3.25
